Substrate in this series: NS(=O)(=O)c1cc(C(=O)O)c(NCc2ccco2)cc1Cl
In words: cells, lysate or membranes. The conditions noted are these: ATP, Mg2+.

B1: multidrug resistance-associated protein 4 (MRP4) (Homo sapiens) (protein)
chain: MLPVYQEVKPNPLQDANLCSRVFFWWLNPLFKIGHKRRLEEDDMYSVLPEDRSQHLGEELQGFWDKEVLRAENDAQKPSLTRAIIKCYWKSYLVLGIFTLIEESAKVIQPIFLGKIINYFENYDPMDSVALNTAYAYATVLTFCTLILAILHHLYFYHVQCAGMRLRVAMCHMIYRKALRLSNMAMGKTTTGQIVNLLSNDVNKFDQVTVFLHFLWAGPLQAIAVTALLWMEIGISCLAGMAVLIILLPLQSCFGKLFSSLRSKTATFTDARIRTMNEVITGIRIIKMYAWEKSFSNLITNLRKKEISKILRSSCLRGMNLASFFSASKIIVFVTFTTYVLLGSVITASRVFVAVTLYGAVRLTVTLFFPSAIERVSEAIVSIRRIQTFLLLDEISQRNRQLPSDGKKMVHVQDFTAFWDKASETPTLQGLSFTVRPGELLAVVGPVGAGKSSLLSAVLGELAPSHGLVSVHGRIAYVSQQPWVFSGTLRSNILFGKKYEKERYEKVIKACALKKDLQLLEDGDLTVIGDRGTTLSGGQKARVNLARAVYQDADIYLLDDPLSAVDAEVSRHLFELCICQILHEKITILVTHQLQYLKAASQILILKDGKMVQKGTYTEFLKSGIDFGSLLKKDNEESEQPPVPGTPTLRNRTFSESSVWSQQSSRPSLKDGALESQDTENVPVTLSEENRSEGKVGFQAYKNYFRAGAHWIVFIFLILLNTAAQVAYVLQDWWLSYWANKQSMLNVTVNGGGNVTEKLDLNWYLGIYSGLTVATVLFGIARSLLVFYVLVNSSQTLHNKMFESILKAPVLFFDRNPIGRILNRFSKDIGHLDDLLPLTFLDFIQTLLQVVGVVSVAVAVIPWIAIPLVPLGIIFIFLRRYFLETSRDVKRLESTTRSPVFSHLSSSLQGLWTIRAYKAEERCQELFDAHQDLHSEAWFLFLTTSRWFAVRLDAICAMFVIIVAFGSLILAKTLDAGQVGLALSYALTLMGMFQWCVRQSAEVENMMISVERVIEYTDLEKEAPWEYQKRPPPAWPHEGVIIFDNVNFMYSPGGPLVLKHLTALIKSQEKVGIVGRTGAGKSSLISALFRLSEPEGKIWIDKILTTEIGLHDLRKKMSIIPQEPVLFTGTMRKNLDPFNEHTDEELWNALQEVQLKETIEDLPGKMDTELAESGSNFSVGQRQLVCLARAILRKNQILIIDEATANVDPRTDELIQKKIREKFAHCTVLTIAHRLNTIIDSDKIMVLDSGRLKEYDEPYVLLQNKESLFYKMVQQLGKAEAAALTETAKQVYFKRNYPHIGHTDHMVTNTSNGQPSTLTIFETAL
On to B1, for which the Michaelis-Menten constant (Km) was 27.96 µM.

A word on the Km: it is the concentration of substrate that gives half-maximal velocity.

These data come from publication PMC7774078.
